Columns and labels:
[1] = test system: SARS-CoV-2; type: cell-based, SARS-CoV-2 WA1; details: Huh-7 cells, MOI 0.2, 48 hrs p.i., FIG. 6C
[2] = test system: SARS-CoV-2; experiment: microbe, parasite or virus in culture; type: cell-based; details: Huh-7 cells; for anti-SARS-CoV-2 activity, percentage of infected Huh-7 cells: protein at 2.3 μM, FIG. 6E
[3] = test system: IFNβ, ISG15, MX1, Viperin and IFITM3; experiment: qPCR of IFNβ and interferon-stimulated gene mRNA in Huh-7 cells; type: cell-based, human; details: lactoferrin-treated Huh-7 cells, FIG. 6D
[4] = test system: SARS-CoV-2; type: cell-based, SARS-CoV-2 WA1; details: iAECs, pretreatment 1.15 μM, MOI 10

| Molecule | viral replication (viral genome copies) [1] | antiviral activity against SARS-CoV-2 (in words) [2] | antiviral activity when added after infection ([2]; 2.3 μM added 1 or 24 hrs p.i., MOI 1, 5 and 10, FIG. 6B) | EC50 ([2]; MOI 0.2, 10-point two-fold dilution dose response in triplicate) | potentiation of efficacy in combination with remdesivir ([2]; MOI 0.2, FIG. 6G, FIG. 7A) | potentiation of efficacy in combination with hydroxychloroquine ([2]; MOI 10, FIG. 6H, FIG. 7B) | IC50 ([2]; read-out: IC50 against SARS-CoV-2 infection) | mRNA levels of IFNβ and interferon-stimulated genes ISG15, MX1, Viperin and IFITM3 [3] | reduction in the proportion of SARS-CoV-2 infected cells [4] | anti-SARS-CoV-2 activity, percentage of infected Huh-7 cells [2] |
| --- | --- | --- | --- | --- | --- | --- | --- | --- | --- | --- |
| Lacto ferrin: a protein found in milk and other secretory fluids; diet supplement (protein, UniProt P24627 20-708, looked up) Lactotransferrin: APRKNVRWCTISQPEWFKCRRWQWRMKKLGAPSITCVRRAFALECIRAIAEKKADAVTLDGGMVFEAGRDPYKLRPVAAEIYGTKESPQTHYYAVAVVKKGSNFQLDQLQGRKSCHTGLGRSAGWIIPMGILRPYLSWTESLEPLQGAVAKFFSASCVPCIDRQAYPNLCQLCKGEGENQCACSSREPYFGYSGAFKCLQDGAGDVAFVKETTVFENLPEKADRDQYELLCLNNSRAPVDAFKECHLAQVPSHAVVARSVDGKEDLIWKLLSKAQEKFGKNKSRSFQLFGSPPGQRDLLFKDSALGFLRIPSKVDSALYLGSRYLTTLKNLRETAEEVKARYTRVVWCAVGPEEQKKCQQWSQQSGQNVTCATASTTDDCIVLVLKGEADALNLDGGYIYTAGKCGLVPVLAENRKSSKHSSLDCVLRPTEGYLAVAVVKKANEGLTWNSLKDKKSCHTAVDRTAGWNIPMGLIVNQTGSCAFDEFFSQSCAPGADPKSRLCALCAGDDQGLDKCVPNSKEKYYGYTGAFRCLAEDVGDVAFVKNDTVWENTNGESTADWAKNLNREDFRLLCLDGTRKPVTEAQSCHLAVAPNHAVVSRSDRAAHVKQVLLHQQALFGKNGKNCPDKFCLFKSETKNLLFNDNTECLAKLGGRPTYEEYLGTEYVTAIANLKKCSTSPLLEACAFLTR | dose-dependent reduction of viral replication | dose-dependent (3 nM-2.3 μM) and MOI-dependent (0.2-10) antiviral activity | retains antiviral activity | 308 nM | potentiates the efficacy | potentiates the efficacy | 308 nM | elevated | two-fold reduction | – |
| apolactoferrin: apolactoferrin (Jarrow Formulas, 121011); component of dietary supplements (protein, UniProt P24627 20-708, looked up, iron-free apo form, apolactoferrin (Jarrow Formulas, 121011); component of dietary supplements) Lactotransferrin: APRKNVRWCTISQPEWFKCRRWQWRMKKLGAPSITCVRRAFALECIRAIAEKKADAVTLDGGMVFEAGRDPYKLRPVAAEIYGTKESPQTHYYAVAVVKKGSNFQLDQLQGRKSCHTGLGRSAGWIIPMGILRPYLSWTESLEPLQGAVAKFFSASCVPCIDRQAYPNLCQLCKGEGENQCACSSREPYFGYSGAFKCLQDGAGDVAFVKETTVFENLPEKADRDQYELLCLNNSRAPVDAFKECHLAQVPSHAVVARSVDGKEDLIWKLLSKAQEKFGKNKSRSFQLFGSPPGQRDLLFKDSALGFLRIPSKVDSALYLGSRYLTTLKNLRETAEEVKARYTRVVWCAVGPEEQKKCQQWSQQSGQNVTCATASTTDDCIVLVLKGEADALNLDGGYIYTAGKCGLVPVLAENRKSSKHSSLDCVLRPTEGYLAVAVVKKANEGLTWNSLKDKKSCHTAVDRTAGWNIPMGLIVNQTGSCAFDEFFSQSCAPGADPKSRLCALCAGDDQGLDKCVPNSKEKYYGYTGAFRCLAEDVGDVAFVKNDTVWENTNGESTADWAKNLNREDFRLLCLDGTRKPVTEAQSCHLAVAPNHAVVSRSDRAAHVKQVLLHQQALFGKNGKNCPDKFCLFKSETKNLLFNDNTECLAKLGGRPTYEEYLGTEYVTAIANLKKCSTSPLLEACAFLTR | – | – | – | – | – | – | – | – | – | robust antiviral effect |
| Hololactoferrin: Hololactoferrin (Sigma Aldrich, L4765) (protein, UniProt P02788 20-710, looked up, iron-saturated holo form) Lactotransferrin: GRRRSVQWCAVSQPEATKCFQWQRNMRKVRGPPVSCIKRDSPIQCIQAIAENRADAVTLDGGFIYEAGLAPYKLRPVAAEVYGTERQPRTHYYAVAVVKKGGSFQLNELQGLKSCHTGLRRTAGWNVPIGTLRPFLNWTGPPEPIEAAVARFFSASCVPGADKGQFPNLCRLCAGTGENKCAFSSQEPYFSYSGAFKCLRDGAGDVAFIRESTVFEDLSDEAERDEYELLCPDNTRKPVDKFKDCHLARVPSHAVVARSVNGKEDAIWNLLRQAQEKFGKDKSPKFQLFGSPSGQKDLLFKDSAIGFSRVPPRIDSGLYLGSGYFTAIQNLRKSEEEVAARRARVVWCAVGEQELRKCNQWSGLSEGSVTCSSASTTEDCIALVLKGEADAMSLDGGYVYTAGKCGLVPVLAENYKSQQSSDPDPNCVDRPVEGYLAVAVVRRSDTSLTWNSVKGKKSCHTAVDRTAGWNIPMGLLFNQTGSCKFDEYFSQSCAPGSDPRSNLCALCIGDEQGENKCVPNSNERYYGYTGAFRCLAENAGDVAFVKDVTVLQNTDGNNNEAWAKDLKLADFALLCLDGKRKPVTEARSCHLAMAPNHAVVSRMDKVERLKQVLLHQQAKFGRNGSDCPDKFCLFQSETKNLLFNDNTECLARLHGKTTYEKYLGPQYVAGITNLKKCSTSPLLEACEFLRK | – | – | – | – | – | – | – | – | – | robust antiviral effect |

From US20240016901A1, “COMPOSITIONS AND METHODS FOR PREVENTING AND TREATING SARS-COV-2 INFECTION” (priority 2020, published 2024)
